One molecule from patent publication US20190367615A1 (BEIJING HANMI PHARM, published 2019) can be followed below.

For test [1], the target named is T1, Recombinant human PD-1 (Sino Biological Inc., Catalog Number 10377-H08H) (human, UniProt Q15116 25-167).
T1 construct: Bought protein; also called antigen PD-1
The test is described as follows: species specificity ELISA, coated recombinant human PD-1 (1 ug/mL), anti-human IgG-HRP, OD450nm. The procedure: (§1) Recombinant human PD-1, monkey PD-1, rat PD-1 and mouse PD-1 (all purchased from Sino Biological Inc.), were coated on a 96-well high-absorbing ELISA plate with a carbonate buffer solution with pH 9.6, the coating concentration was 1 μg/mL, the coating amount was 100 μL per well, and the coating was carried out at 4° C. overnight. The plate was washed five times with PBST and blocked with 300 μL/well of PBST containing 1% BSA, and then incubated at 25° C. for 1 hour. The plate was washed five times with PBST. […] The plate was washed five times with PBST. Then, horseradish peroxidase-labeled anti-human IgG antibody (Chemicon, Catalog Number AP309P) 1:2000 diluted in PBST containing 1% BSA was added, 100 μL per well, incubated at 25° C. for 1 hour. The plate was washed five times with PBST. 100 μL/well of colorimetric substrate TMB was added and incubated at room temperature for 10 minutes. Color development was terminated by adding 100 μL/well of 1 M H₂SO₄: The absorbance at 450 nm was read on a microplate reader.
(In general: An ELISA detects its analyte on a solid surface through an enzyme-linked reagent.)

Test [2] concerns the target T1, Recombinant human PD-1 (Sino Biological …). The test is described as follows: ELISA, coated recombinant human PD-1 (1 ug/mL), detection with anti-human IgG-HRP, OD450nm. How it is done: as §1, with “human” for “human PD-1, monkey PD-1, rat”, “(purchased” for “and mouse PD-1 (all purchased”, “Inc.) was” for “Inc.), were”, “H₂SO₄.” for “H₂SO₄:”
The target of test [3] is T2, Recombinant human CD80 (Sino Biological Inc.) (human, UniProt P33681 35-242).
T2 sequence (looked up): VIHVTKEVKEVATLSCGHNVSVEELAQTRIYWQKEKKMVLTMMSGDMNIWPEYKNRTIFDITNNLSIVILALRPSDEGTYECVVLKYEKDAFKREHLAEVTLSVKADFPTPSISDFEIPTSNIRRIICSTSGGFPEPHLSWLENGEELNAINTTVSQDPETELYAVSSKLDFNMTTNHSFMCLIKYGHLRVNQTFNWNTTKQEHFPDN
The test is described as follows: binding specificity ELISA, coated recombinant human CD80, anti-human IgG-HRP. The procedure: The plate was washed five times with PBST and blocked with 300 μL/well of PBST containing 1% BSA and incubated at 25° C. for 1 hour. The plate was washed five times with PBST. […] The plate was washed five times with PBST. Then, horseradish peroxidase-labeled anti-human IgG antibody (Chemicon, Catalog Number AP309P) 1:2000 diluted in PBST containing 1% BSA was added, 100 μL was added to each well, incubated at 25° C. for 1 hour. The plate was washed five times with PBST. 100 μL/well of colorimetric substrate TMB was added and incubated at room temperature for 10 minutes. Color development was terminated by adding 100 μL/well of 1 M H₂SO₄. The absorbance at 450 nm was read on a microplate reader.

T1 sequence (Q15116 25-167 limits assumed): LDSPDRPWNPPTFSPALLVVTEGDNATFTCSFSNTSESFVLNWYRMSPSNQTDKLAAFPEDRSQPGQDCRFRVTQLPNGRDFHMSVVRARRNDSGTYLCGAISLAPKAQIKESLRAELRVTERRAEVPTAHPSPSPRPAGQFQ

B1: anti-human PD-1 chimeric monoclonal antibody (antibody, human IgG4 S228P, kappa, V domains shown)
VH: EVQLQESGGGLVKPGGSLKLSCAASGFTFSSYGMSWVRQTPEKRLEWVASISGGGRYTYYPDSMKGRFTISRDNAKNNLHLQMSSLRSEDTALYYCVYEYFYTMDYWGQGTSVTVSS
VL: DIVLTQSPATLSVTPGDSVSLSCRANQSISNNLHWYQQRSHESPRLLIRFASQSISGIPSRFSGSGSGTDFTLSINSVETEDFGMYFCQQSDNWPLTFGAGTKLEIKR
notes: expressed in 293F cells; also called Anti-human PD-1 Chimeric Antibody; chimeric anti-human PD-1 monoclonal antibody
On to B1, for which the EC50 in test [1] and in test [2] was 0.092 nM each time. The binding result in test [3] is listed as “no binding”.
